Test results as given in US20210221875A1 (Chugai, published 2021).

T1: human CD3ed-Fc (human)
T1 construct: human CD3 epsilon and human CD3 delta linked to a human antibody constant region, biotinylated in culture with BirA; also called CD3 epsilon delta heterodimer fused with the antibody constant region; biotin-labeled human CD3ed-Fc
T1 chain 1: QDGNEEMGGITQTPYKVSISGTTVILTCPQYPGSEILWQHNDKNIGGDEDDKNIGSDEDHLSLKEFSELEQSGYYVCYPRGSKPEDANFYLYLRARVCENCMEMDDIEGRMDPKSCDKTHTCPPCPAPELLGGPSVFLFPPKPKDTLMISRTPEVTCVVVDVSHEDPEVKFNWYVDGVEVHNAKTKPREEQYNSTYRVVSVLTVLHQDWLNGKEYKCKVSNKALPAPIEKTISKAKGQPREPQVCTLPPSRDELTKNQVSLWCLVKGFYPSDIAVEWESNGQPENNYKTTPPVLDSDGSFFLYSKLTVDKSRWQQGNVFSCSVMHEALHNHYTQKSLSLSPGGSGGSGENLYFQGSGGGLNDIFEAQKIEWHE
T1 chain 2: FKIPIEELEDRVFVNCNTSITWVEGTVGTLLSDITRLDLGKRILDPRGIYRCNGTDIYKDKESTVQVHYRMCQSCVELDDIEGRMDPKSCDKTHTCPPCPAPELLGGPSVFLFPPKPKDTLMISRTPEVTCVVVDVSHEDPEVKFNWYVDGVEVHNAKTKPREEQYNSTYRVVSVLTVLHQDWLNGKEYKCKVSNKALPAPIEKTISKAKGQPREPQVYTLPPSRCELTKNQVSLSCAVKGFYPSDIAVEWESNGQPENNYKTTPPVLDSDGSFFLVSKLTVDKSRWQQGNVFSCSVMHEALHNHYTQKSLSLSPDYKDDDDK


What was measured:
[1] = target: T2, Human aggrecan G1-IGD-G2 domain with Flag-tag on its C-terminus (human, UniProt P16112 17-675); test: BLI (Octet RED), biotin-labeled human aggrecan G1-IGD-G2-Flag on streptavidin sensor, 27 C
T2 construct: used unlabelled as Biacore analyte; also called human aggrecan G1-IGD-G2-Flag; human Aggrecan G1G2 flag

biotinylated plexin A1 = target: T3, biotinylated plexin A1 (human, UniProt Q9UIW2 27-1253, biotin on the AviTag sequence (BirA co-expression)); test: BLI (Octet), in the same way as in Example 3
T3 construct: extracellular region of plexin A1 linked to AviTag and FLAG tag; also called biotin-labeled human plexin A1; human plexin A1

human CD3ed-Fc = target: T1, human CD3ed-Fc; test: BLI (Octet RED), human CD3ed-Fc on the sensor

T3 sequence (Q9UIW2 other isoform, or with tags, fused parts or gaps limits assumed): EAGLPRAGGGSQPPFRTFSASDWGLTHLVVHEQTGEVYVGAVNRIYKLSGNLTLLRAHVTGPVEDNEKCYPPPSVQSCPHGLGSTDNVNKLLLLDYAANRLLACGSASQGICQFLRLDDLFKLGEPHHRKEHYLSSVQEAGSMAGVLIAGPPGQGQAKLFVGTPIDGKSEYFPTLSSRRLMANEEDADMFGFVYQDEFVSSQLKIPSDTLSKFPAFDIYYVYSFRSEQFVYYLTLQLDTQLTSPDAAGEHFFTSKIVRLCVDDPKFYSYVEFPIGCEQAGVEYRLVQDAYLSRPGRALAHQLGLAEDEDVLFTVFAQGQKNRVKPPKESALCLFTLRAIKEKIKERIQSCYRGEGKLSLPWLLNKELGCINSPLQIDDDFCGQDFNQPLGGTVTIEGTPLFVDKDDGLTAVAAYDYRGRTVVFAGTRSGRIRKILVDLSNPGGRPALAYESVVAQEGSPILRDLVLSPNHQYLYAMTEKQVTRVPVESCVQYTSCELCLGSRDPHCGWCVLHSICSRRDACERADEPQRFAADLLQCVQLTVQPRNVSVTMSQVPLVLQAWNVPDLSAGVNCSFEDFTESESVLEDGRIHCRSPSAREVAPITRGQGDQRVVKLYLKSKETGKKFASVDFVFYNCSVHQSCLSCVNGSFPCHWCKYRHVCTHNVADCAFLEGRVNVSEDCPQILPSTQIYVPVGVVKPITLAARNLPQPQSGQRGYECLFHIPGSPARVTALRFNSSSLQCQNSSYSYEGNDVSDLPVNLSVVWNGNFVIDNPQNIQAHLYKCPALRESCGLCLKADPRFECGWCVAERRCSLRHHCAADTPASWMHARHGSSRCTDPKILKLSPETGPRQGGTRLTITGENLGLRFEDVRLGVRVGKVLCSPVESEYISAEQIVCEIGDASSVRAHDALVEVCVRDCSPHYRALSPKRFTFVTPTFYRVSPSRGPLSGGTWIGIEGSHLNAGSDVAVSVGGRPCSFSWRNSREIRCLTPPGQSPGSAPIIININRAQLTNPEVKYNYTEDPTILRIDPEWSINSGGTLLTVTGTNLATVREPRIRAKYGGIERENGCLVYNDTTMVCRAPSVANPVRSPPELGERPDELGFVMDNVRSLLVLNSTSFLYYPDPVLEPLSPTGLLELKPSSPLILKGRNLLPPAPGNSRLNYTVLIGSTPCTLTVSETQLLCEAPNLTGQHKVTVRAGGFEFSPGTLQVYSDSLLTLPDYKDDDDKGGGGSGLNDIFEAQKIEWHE

Binder	binding result (biotinylated plexin A1)	binding result (human CD3ed-Fc)	further results
hA2R3p.038-G1mISHI01/VK1.39-k0MT (antibody, human IgG1, kappa, V domains shown) VH: QLQLVESGGGLVQAGGSLRLSCAASGRTFRTYAMGWFRQAPGKEREFVSSISGSGGSKIYADSVKGRFTISRDNAKDTVNLQMNSLKPEDTAVYYCAVARGYYGTMASDPGLYDYWGQGTQVTVSS VL: DIQMTQSPSSLSASVGDRVTITCRASQSISSYLNWYQQKPGKAPKLLIYAASSLQSGVPSRFSGSGSGTDFTLTISSLQPEDFATYYCLQFDSYPLTFGGGTKVEIKR			binding result [1]: binds
PX02-R4_017-G1mISHI01/VK1-39-k0MT (antibody, human IgG1, kappa, V domains shown, uncleaved; light chain printed once for the five molecules) VH: QVQLVESGGGLVQPGGSLRLSCTASGISFSISTMGWYRQAPGKQRELVATITSGGEAYYANSMKDRFTISRDNAENTVYLQMNRLKPEDSAVYYCNTKFPWSTDWNARGQGTQVTVSG VL: DIQMTQSPSSLSASVGDRVTITCRASQSISSYLNWYQQKPGKAPKLLIYAASSLQSGVPSRFSGSGSGTDFTLTISSLQPEDFATYYCLQFDSYPLTFGGGTKVEIKR	no binding		
bC3edL1R1N161H01-G1mISHI01/VK1-39-k0MT (antibody, human IgG1, kappa, V domains shown, uncleaved) VH: QVQLVESGGGLVQPGGSLRLSCAASGFPFDNYVMSWVRQAPGKGLEWISAISWNGGSTYYAESMKGRFTISRDNAKSTLYLQMNSLKSEDTAVYYCAKEPRVYYSGSPDYWGQGTQVTVSG VL: DIQMTQSPSSLSASVGDRVTITCRASQSISSYLNWYQQKPGKAPKLLIYAASSLQSGVPSRFSGSGSGTDFTLTISSLQPEDFATYYCLQFDSYPLTFGGGTKVEIKR		no binding	
PX03-R2_006-G1mISHI01/VK1-39-k0MT (antibody, human IgG1, kappa, V domains shown, uncleaved; light chain printed once for the five molecules) VH: QLQLVESGGGLVQPGGSLRLSCTASGISFSISTMGWYRQAPGKQRELVATIASGGEAYYANSVKGRFTISRDNAENTVYLQMNRLKPEDSAVYYCNTKFPWSTDWNARGQGTQVTVSG VL: DIQMTQSPSSLSASVGDRVTITCRASQSISSYLNWYQQKPGKAPKLLIYAASSLQSGVPSRFSGSGSGTDFTLTISSLQPEDFATYYCLQFDSYPLTFGGGTKVEIKR	no binding		

Continued, in another order:

binding result (biotinylated plexin A1)	binding result (human CD3ed-Fc)	Binder	further results
	no binding	bC3edL1R1N164H01-G1mISHI01/VK1-39-k0MT (antibody, human IgG1, kappa, V domains shown, uncleaved) VH: QVQLVESGGGLVQPGGSLRLSCAASGFTFDVYGMSWVRHSPGKGLEWVSTINWNGGSTYYAESMKGRFTISRDNAKNTVYLQMNSLKPEDTAVYYCAKFAPWDGDMEWGQGTQVTVSG VL: DIQMTQSPSSLSASVGDRVTITCRASQSISSYLNWYQQKPGKAPKLLIYAASSLQSGVPSRFSGSGSGTDFTLTISSLQPEDFATYYCLQFDSYPLTFGGGTKVEIKR	
	no binding	bC3edL1R1N160H01-G1mISHI01/VK1-39-k0MT (antibody, human IgG1, kappa, V domains shown) VH: QVQLVESGGGLVQPGGSLRLSCAASGFTFNHCWMYWVRQAPGKGLEWVSVINTDGGSAYYADSVKGRFTISRDNAKNTLYLQMNSLKSEDTAVYYCARDWAPLVDYYYGMDYWGKGTLVTVSG VL: DIQMTQSPSSLSASVGDRVTITCRASQSISSYLNWYQQKPGKAPKLLIYAASSLQSGVPSRFSGSGSGTDFTLTISSLQPEDFATYYCLQFDSYPLTFGGGTKVEIKR	
no binding		PX03-R4_009-G1mISHI01/VK1-39-k0MT (antibody, human IgG1, kappa, V domains shown, uncleaved; light chain printed once for the five molecules) VH: QLQLVESGGGLVQPGGSLRLSCTASGISFSISTMGWYRQAPGKQRELVATIASGGEAYYANSVKGRFTISREYAENTVFLQMNRLKPEDSAVYYCNTKFPWSTDWNARGQGTQVTVSG VL: DIQMTQSPSSLSASVGDRVTITCRASQSISSYLNWYQQKPGKAPKLLIYAASSLQSGVPSRFSGSGSGTDFTLTISSLQPEDFATYYCLQFDSYPLTFGGGTKVEIKR	
